{"source": "the supplement of paper PMC10126150", "note": "± gives the standard deviation of the averaged measurements.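 Note: ATP exposure 15 min at 22 °C before imaging.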"}
{"system": "ATP", "test": "switch fluorescence ratio, 500 uM ATP over buffer (Cy3 cluster intensity, sum of 5 cycles each) (fold (ratio)); higher = stronger signal-on switching upon ATP binding; sequences stand for … in TCGTCGGCAGCGTCAGATGTGTATAAGAGACAGTTTTTTTTTTTTTTTTTTTTTTTTT…TC", "conditions": "aptamer strand: ATP DNA aptamer (quencher-CACCTGGGGGAGTATTGCGGAGGAAGG + anchor), 100 nM annealed; ATP concentration: 500 uM", "procedure,_shortened": "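Per cluster, summed Cy3 intensity from the target cycles was divided by that from the buffer cycles to give the fluorescence ratio, then averaged per switch-domain sequence. Clusters outside 100-1000 RFU were excluded. The Cy3-labelled switching-strand clusters, on a modified Illumina MiSeq flow-cell, were annealed to 100 nM quencher-labelled ATP aptamer and imaged in selection buffer, then after 15 min with 500 uM ATP at 22 °C, for five cycles with NaOH stripping and re-annealing between them.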"}
{"sequence": "TGGGTATTTT", "switch fluorescence ratio": "1.01 ± 0.026"}
{"sequence": "TGGGTCAATA", "switch fluorescence ratio": "1.03 ± 0.054"}
{"sequence": "TGGGTCCGCG", "switch fluorescence ratio": "1.123 ± 0.0092"}
{"sequence": "TGGGTCCTTG", "switch fluorescence ratio": "0.9894 ± 0.0014"}
{"sequence": "TGGGTGAAGC", "switch fluorescence ratio": "0.991 ± 0.059"}
{"sequence": "TGGGTGCGCG", "switch fluorescence ratio": "1.014 ± 0.0063"}
{"sequence": "TGGGTGCGGT", "switch fluorescence ratio": "0.991 ± 0.012"}
{"sequence": "TGGGTGGGCC", "switch fluorescence ratio": "0.981 ± 0.023"}
{"sequence": "TGGGTGTCGG", "switch fluorescence ratio": "1.04 ± 0.019"}
{"sequence": "TGGGTGTGGT", "switch fluorescence ratio": "1 ± 0.025"}
{"sequence": "TGGGTGTTAA", "switch fluorescence ratio": "0.974 ± 0.055"}
{"sequence": "TGGGTGTTGG", "switch fluorescence ratio": "1.01 ± 0.057"}
{"sequence": "TGGGTTAACA", "switch fluorescence ratio": "0.991 ± 0.018"}
{"sequence": "TGGGTTACCT", "switch fluorescence ratio": "1.05 ± 0.01"}
{"sequence": "TGGGTTAGCT", "switch fluorescence ratio": "1.04 ± 0.039"}
{"sequence": "TGGGTTAGTG", "switch fluorescence ratio": "0.962 ± 0.017"}
{"sequence": "TGGGTTCGAT", "switch fluorescence ratio": "1.02 ± 0.015"}
{"sequence": "TGGGTTGATG", "switch fluorescence ratio": "0.959 ± 0.023"}
{"sequence": "TGGGTTGGCA", "switch fluorescence ratio": "0.987 ± 0.029"}
{"sequence": "TGGGTTGTCG", "switch fluorescence ratio": "1.02 ± 0.016"}
{"sequence": "TGGGTTGTGT", "switch fluorescence ratio": "0.988 ± 0.028"}
{"sequence": "TGGGTTTCTA", "switch fluorescence ratio": "0.964 ± 0.021"}
{"sequence": "TGGGTTTGCG", "switch fluorescence ratio": "0.982 ± 0.021"}
{"sequence": "TGGGTTTGGT", "switch fluorescence ratio": "1.01 ± 0.014"}
{"sequence": "TGGGTTTTAG", "switch fluorescence ratio": "0.977 ± 0.013"}
{"sequence": "TGGTAAAGTG", "switch fluorescence ratio": "1.08 ± 0.1"}
{"sequence": "TGGTAATGGG", "switch fluorescence ratio": "1.01 ± 0.049"}
{"sequence": "TGGTAATTGG", "switch fluorescence ratio": "0.98 ± 0.01"}
{"sequence": "TGGTACGTAG", "switch fluorescence ratio": "1.03 ± 0.034"}
{"sequence": "TGGTACGTGG", "switch fluorescence ratio": "0.974 ± 0.032"}
{"sequence": "TGGTAGAGTT", "switch fluorescence ratio": "1 ± 0.016"}
{"sequence": "TGGTAGCAGT", "switch fluorescence ratio": "0.989 ± 0.037"}
{"sequence": "TGGTAGGGAA", "switch fluorescence ratio": "0.982 ± 0.014"}
{"sequence": "TGGTATAGTA", "switch fluorescence ratio": "0.993 ± 0.019"}
{"sequence": "TGGTATATTA", "switch fluorescence ratio": "0.983 ± 0.027"}
{"sequence": "TGGTATCGGA", "switch fluorescence ratio": "0.977 ± 0.021"}
{"sequence": "TGGTATGCGT", "switch fluorescence ratio": "1.02 ± 0.024"}
{"sequence": "TGGTATTATT", "switch fluorescence ratio": "0.998 ± 0.024"}
{"sequence": "TGGTATTGCT", "switch fluorescence ratio": "0.9955 ± 0.0098"}
{"sequence": "TGGTCCAGTG", "switch fluorescence ratio": "1.03 ± 0.089"}
{"sequence": "TGGTCCTGGT", "switch fluorescence ratio": "0.997 ± 0.019"}
{"sequence": "TGGTCGCCGT", "switch fluorescence ratio": "0.978 ± 0.14"}
{"sequence": "TGGTCGGTCT", "switch fluorescence ratio": "1.07 ± 0.074"}
{"sequence": "TGGTCGTCGG", "switch fluorescence ratio": "0.985 ± 0.037"}
{"sequence": "TGGTGAAAGA", "switch fluorescence ratio": "1.01 ± 0.029"}
{"sequence": "TGGTGAAAGT", "switch fluorescence ratio": "0.982 ± 0.025"}
{"sequence": "TGGTGAACGT", "switch fluorescence ratio": "1 ± 0.053"}
{"sequence": "TGGTGACTAG", "switch fluorescence ratio": "0.967 ± 0.024"}
{"sequence": "TGGTGCATTT", "switch fluorescence ratio": "1.06 ± 0.14"}
{"sequence": "TGGTGCTAAG", "switch fluorescence ratio": "1.03 ± 0.02"}
{"sequence": "TGGTGGAGTC", "switch fluorescence ratio": "1.02 ± 0.046"}
{"sequence": "TGGTGGATGG", "switch fluorescence ratio": "1.22 ± 0.29"}
{"sequence": "TGGTGGCTGG", "switch fluorescence ratio": "0.989 ± 0.028"}
{"sequence": "TGGTGGGCGA", "switch fluorescence ratio": "1.04 ± 0.058"}
{"sequence": "TGGTGGGGGA", "switch fluorescence ratio": "0.987 ± 0.015"}
{"sequence": "TGGTGGGTGC", "switch fluorescence ratio": "1.04 ± 0.044"}
{"sequence": "TGGTGGTCGC", "switch fluorescence ratio": "0.9778 ± 0.0044"}
{"sequence": "TGGTGTAAGA", "switch fluorescence ratio": "1.04 ± 0.025"}
{"sequence": "TGGTGTAAT", "switch fluorescence ratio": "1 ± 0.03"}
{"sequence": "TGGTGTTTGG", "switch fluorescence ratio": "0.979 ± 0.032"}
{"sequence": "TGGTTAAAAA", "switch fluorescence ratio": "0.98 ± 0.049"}
{"sequence": "TGGTTAATGC", "switch fluorescence ratio": "1.48 ± 0.1"}
{"sequence": "TGGTTAATGG", "switch fluorescence ratio": "0.989 ± 0.038"}
{"sequence": "TGGTTACATG", "switch fluorescence ratio": "1.02 ± 0.014"}
{"sequence": "TGGTTAGAAT", "switch fluorescence ratio": "0.986 ± 0.024"}
{"sequence": "TGGTTAGTGT", "switch fluorescence ratio": "1.01 ± 0.057"}
{"sequence": "TGGTTATGGG", "switch fluorescence ratio": "0.985 ± 0.022"}
{"sequence": "TGGTTATGTT", "switch fluorescence ratio": "1.02 ± 0.023"}
{"sequence": "TGGTTATTGT", "switch fluorescence ratio": "0.974 ± 0.032"}
{"sequence": "TGGTTCGAGA", "switch fluorescence ratio": "0.979 ± 0.025"}
{"sequence": "TGGTTCGTTA", "switch fluorescence ratio": "1 ± 0.05"}
{"sequence": "TGGTTCGTTT", "switch fluorescence ratio": "0.995 ± 0.055"}
{"sequence": "TGGTTCTCGA", "switch fluorescence ratio": "0.987 ± 0.012"}
{"sequence": "TGGTTCTGGG", "switch fluorescence ratio": "0.973 ± 0.013"}
{"sequence": "TGGTTCTTAA", "switch fluorescence ratio": "1.01 ± 0.041"}
{"sequence": "TGGTTGCTGA", "switch fluorescence ratio": "1 ± 0.033"}
{"sequence": "TGGTTGGGTT", "switch fluorescence ratio": "1 ± 0.021"}
{"sequence": "TGGTTGGTTG", "switch fluorescence ratio": "0.988 ± 0.02"}
{"sequence": "TGGTTGTACG", "switch fluorescence ratio": "1.01 ± 0.027"}
{"sequence": "TGGTTGTGCG", "switch fluorescence ratio": "1.04 ± 0.018"}
{"sequence": "TGGTTGTTGG", "switch fluorescence ratio": "0.95 ± 0.02"}
{"sequence": "TGGTTTAAAT", "switch fluorescence ratio": "1.04 ± 0.054"}
{"sequence": "TGGTTTAGCG", "switch fluorescence ratio": "0.964 ± 0.03"}
{"sequence": "TGGTTTCGGT", "switch fluorescence ratio": "0.9903 ± 0.0017"}
{"sequence": "TGGTTTGATT", "switch fluorescence ratio": "1.003 ± 0.0064"}
